Assay results published in US20170015742A1 (published 2017).
Numbering of substitutions follows the chain as printed.

B1: 4G8.3-SS-9E8.4 DVD-Ig (PR-1564011) (bispecific antibody, human IgG1, kappa, L234A L235A)
heavy: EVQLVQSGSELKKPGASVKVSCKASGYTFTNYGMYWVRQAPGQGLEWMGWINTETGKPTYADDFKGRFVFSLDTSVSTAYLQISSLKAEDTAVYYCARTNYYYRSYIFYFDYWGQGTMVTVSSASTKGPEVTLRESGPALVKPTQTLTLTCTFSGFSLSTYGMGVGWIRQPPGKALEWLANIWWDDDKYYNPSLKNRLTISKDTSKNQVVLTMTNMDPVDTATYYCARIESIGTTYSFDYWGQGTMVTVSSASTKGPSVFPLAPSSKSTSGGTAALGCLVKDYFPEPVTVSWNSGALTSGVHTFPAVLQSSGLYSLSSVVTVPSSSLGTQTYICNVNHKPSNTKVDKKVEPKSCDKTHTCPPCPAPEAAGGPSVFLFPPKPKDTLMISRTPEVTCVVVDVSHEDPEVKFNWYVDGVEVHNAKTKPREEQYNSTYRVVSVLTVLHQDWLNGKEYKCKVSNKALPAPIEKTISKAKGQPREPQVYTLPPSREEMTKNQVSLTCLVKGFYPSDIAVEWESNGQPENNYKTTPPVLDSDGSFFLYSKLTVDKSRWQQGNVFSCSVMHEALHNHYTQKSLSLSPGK
light: DTVLTQSPATLSLSPGERATLSCRASESVSTHMHWYQQKPGQAPRLLIYGASNLESGVPARFSGSGSGTDFTLTISSLEPEDFAVYFCQQSWNDPFTFGQGTKLEIKRTVAAPEFVLTQSPGTLSLSPGERATLSCERSSGDIGDSYVSWYQQKPGQAPRLVIYADDQRPSGIPDRFSGSGSGTDFTLTISRLEPEDFAVYYCQSYDINIDIVFGGGTKVEIKGTVAAPSVFIFPPSDEQLKSGTASVVCLLNNFYPREAKVQWKVDNALQSGNSQESVTEQDSKDSTYSLSSTLTLSKADYEKHKVYACEVTHQGLSSPVTKSFNRGEC
B2: 4G8.3-GS-9E8.4E DVD-Ig (PR-1575832) (bispecific antibody, human IgG1, kappa, L234A L235A)
heavy: EVQLVQSGSELKKPGASVKVSCKASGYTFTNYGMYWVRQAPGQGLEWMGWINTETGKPTYADDFKGRFVFSLDTSVSTAYLQISSLKAEDTAVYYCARTNYYYRSYIFYFDYWGQGTMVTVSSGGGGSGGGGSEVTLRESGPALVKPTQTLTLTCTFSGFSLSTYGMGVGWIRQPPGKALEWLANIWWDDDKYYNPSLKNRLTISKDTSKNQVVLTMTNMDPVDTATYYCARIESIGTTYSFDYWGQGTMVTVSSASTKGPSVFPLAPSSKSTSGGTAALGCLVKDYFPEPVTVSWNSGALTSGVHTFPAVLQSSGLYSLSSVVTVPSSSLGTQTYICNVNHKPSNTKVDKKVEPKSCDKTHTCPPCPAPEAAGGPSVFLFPPKPKDTLMISRTPEVTCVVVDVSHEDPEVKFNWYVDGVEVHNAKTKPREEQYNSTYRVVSVLTVLHQDWLNGKEYKCKVSNKALPAPIEKTISKAKGQPREPQVYTLPPSREEMTKNQVSLTCLVKGFYPSDIAVEWESNGQPENNYKTTPPVLDSDGSFFLYSKLTVDKSRWQQGNVFSCSVMHEALHNAYTQKSLSLSPGK
light: DTVLTQSPATLSLSPGERATLSCRASESVSTHMHWYQQKPGQAPRLLIYGASNLESGVPARFSGSGSGTDFTLTISSLEPEDFAVYFCQQSWNDPFTFGQGTKLEIKRGGSGGGGSGEFVLTQSPGTLSLSPGERATLSCERSSGDIGESYVSWYQQKPGQAPRLVIYADDQRPSGIPDRFSGSGSGTDFTLTISRLEPEDFAVYYCQSYDINIDIVFGGGTKVEIKRTVAAPSVFIFPPSDEQLKSGTASVVCLLNNFYPREAKVQWKVDNALQSGNSQESVTEQDSKDSTYSLSSTLTLSKADYEKHKVYACEVTHQGLSSPVTKSFNRGEC
B3: 4G8.3-SL-9E8.4E DVD-Ig (PR-1575834) (bispecific antibody, human IgG1, kappa, L234A L235A)
heavy: EVQLVQSGSELKKPGASVKVSCKASGYTFTNYGMYWVRQAPGQGLEWMGWINTETGKPTYADDFKGRFVFSLDTSVSTAYLQISSLKAEDTAVYYCARTNYYYRSYIFYFDYWGQGTMVTVSSASTKGPEVTLRESGPALVKPTQTLTLTCTFSGFSLSTYGMGVGWIRQPPGKALEWLANIWWDDDKYYNPSLKNRLTISKDTSKNQVVLTMTNMDPVDTATYYCARIESIGTTYSFDYWGQGTMVTVSSASTKGPSVFPLAPSSKSTSGGTAALGCLVKDYFPEPVTVSWNSGALTSGVHTFPAVLQSSGLYSLSSVVTVPSSSLGTQTYICNVNHKPSNTKVDKKVEPKSCDKTHTCPPCPAPEAAGGPSVFLFPPKPKDTLMISRTPEVTCVVVDVSHEDPEVKFNWYVDGVEVHNAKTKPREEQYNSTYRVVSVLTVLHQDWLNGKEYKCKVSNKALPAPIEKTISKAKGQPREPQVYTLPPSREEMTKNQVSLTCLVKGFYPSDIAVEWESNGQPENNYKTTPPVLDSDGSFFLYSKLTVDKSRWQQGNVFSCSVMHEALHNAYTQKSLSLSPGK
light: DTVLTQSPATLSLSPGERATLSCRASESVSTHMHWYQQKPGQAPRLLIYGASNLESGVPARFSGSGSGTDFTLTISSLEPEDFAVYFCQQSWNDPFTFGQGTKLEIKRTVAAPSVFIFPPEFVLTQSPGTLSLSPGERATLSCERSSGDIGESYVSWYQQKPGQAPRLVIYADDQRPSGIPDRFSGSGSGTDFTLTISRLEPEDFAVYYCQSYDINIDIVFGGGTKVEIKRTVAAPSVFIFPPSDEQLKSGTASVVCLLNNFYPREAKVQWKVDNALQSGNSQESVTEQDSKDSTYSLSSTLTLSKADYEKHKVYACEVTHQGLSSPVTKSFNRGEC
B4: 9E8.4-SS-4G8.3 DVD-Ig (PR-1563990) (bispecific antibody, human IgG1, kappa, L234A L235A)
heavy: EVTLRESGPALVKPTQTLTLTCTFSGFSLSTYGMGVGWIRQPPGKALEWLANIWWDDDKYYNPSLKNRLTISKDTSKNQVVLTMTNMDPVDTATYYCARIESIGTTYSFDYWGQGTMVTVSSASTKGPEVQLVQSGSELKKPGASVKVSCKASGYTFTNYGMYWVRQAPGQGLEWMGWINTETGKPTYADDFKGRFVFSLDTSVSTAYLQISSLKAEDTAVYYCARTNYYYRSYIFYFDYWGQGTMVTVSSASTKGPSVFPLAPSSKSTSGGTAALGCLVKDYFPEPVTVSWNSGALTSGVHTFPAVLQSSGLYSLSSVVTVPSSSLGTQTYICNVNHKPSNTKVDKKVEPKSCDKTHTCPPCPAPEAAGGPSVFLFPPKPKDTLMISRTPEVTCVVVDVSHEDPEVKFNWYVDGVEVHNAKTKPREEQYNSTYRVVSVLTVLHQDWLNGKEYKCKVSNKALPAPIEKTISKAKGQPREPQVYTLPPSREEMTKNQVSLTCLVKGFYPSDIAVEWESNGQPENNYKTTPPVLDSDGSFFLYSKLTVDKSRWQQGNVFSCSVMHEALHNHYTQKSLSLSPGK
light: EFVLTQSPGTLSLSPGERATLSCERSSGDIGDSYVSWYQQKPGQAPRLVIYADDQRPSGIPDRFSGSGSGTDFTLTISRLEPEDFAVYYCQSYDINIDIVFGGGTKVEIKGTVAAPDTVLTQSPATLSLSPGERATLSCRASESVSTHMHWYQQKPGQAPRLLIYGASNLESGVPARFSGSGSGTDFTLTISSLEPEDFAVYFCQQSWNDPFTFGQGTKLEIKRTVAAPSVFIFPPSDEQLKSGTASVVCLLNNFYPREAKVQWKVDNALQSGNSQESVTEQDSKDSTYSLSSTLTLSKADYEKHKVYACEVTHQGLSSPVTKSFNRGEC
B5: 9E8.4-LS-4G8.3 DVD-Ig (PR-1564009) (bispecific antibody, human IgG1, kappa, L234A L235A)
heavy: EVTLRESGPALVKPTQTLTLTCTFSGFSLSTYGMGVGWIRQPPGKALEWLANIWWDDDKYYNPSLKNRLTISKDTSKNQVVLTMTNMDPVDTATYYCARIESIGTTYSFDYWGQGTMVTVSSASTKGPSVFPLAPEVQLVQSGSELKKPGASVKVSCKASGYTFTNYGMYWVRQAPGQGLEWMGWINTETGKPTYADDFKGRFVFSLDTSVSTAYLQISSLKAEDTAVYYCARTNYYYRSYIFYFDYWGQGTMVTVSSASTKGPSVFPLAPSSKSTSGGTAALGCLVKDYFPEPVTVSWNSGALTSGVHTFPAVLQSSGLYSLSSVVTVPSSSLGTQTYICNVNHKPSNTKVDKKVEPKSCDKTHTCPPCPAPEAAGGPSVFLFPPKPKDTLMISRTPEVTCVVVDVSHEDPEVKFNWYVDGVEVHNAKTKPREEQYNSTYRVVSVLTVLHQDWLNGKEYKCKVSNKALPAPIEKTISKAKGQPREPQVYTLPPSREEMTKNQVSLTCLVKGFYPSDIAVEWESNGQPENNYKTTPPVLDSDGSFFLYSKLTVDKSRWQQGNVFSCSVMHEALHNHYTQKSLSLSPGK
light: B4 light
B6: 9E8.4-SL-4G8.3 DVD-Ig (PR-1563998) (bispecific antibody, human IgG1, kappa, L234A L235A)
heavy: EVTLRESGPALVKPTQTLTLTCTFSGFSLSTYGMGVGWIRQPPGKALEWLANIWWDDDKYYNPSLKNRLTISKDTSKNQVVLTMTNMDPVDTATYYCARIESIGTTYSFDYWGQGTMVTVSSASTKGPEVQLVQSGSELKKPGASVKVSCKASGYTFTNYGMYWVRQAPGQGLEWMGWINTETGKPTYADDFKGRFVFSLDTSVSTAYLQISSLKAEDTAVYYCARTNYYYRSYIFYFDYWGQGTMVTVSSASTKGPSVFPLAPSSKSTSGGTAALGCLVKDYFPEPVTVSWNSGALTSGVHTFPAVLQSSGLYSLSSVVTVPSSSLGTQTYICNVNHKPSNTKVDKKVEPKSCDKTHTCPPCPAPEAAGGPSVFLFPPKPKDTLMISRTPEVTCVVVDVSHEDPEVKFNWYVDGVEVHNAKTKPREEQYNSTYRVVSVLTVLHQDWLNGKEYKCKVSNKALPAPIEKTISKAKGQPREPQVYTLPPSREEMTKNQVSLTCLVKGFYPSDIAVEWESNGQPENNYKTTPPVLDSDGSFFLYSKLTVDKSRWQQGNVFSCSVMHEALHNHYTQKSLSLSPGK
light: EFVLTQSPGTLSLSPGERATLSCERSSGDIGDSYVSWYQQKPGQAPRLVIYADDQRPSGIPDRFSGSGSGTDFTLTISRLEPEDFAVYYCQSYDINIDIVFGGGTKVEIKGTVAAPSVFIFPPDTVLTQSPATLSLSPGERATLSCRASESVSTHMHWYQQKPGQAPRLLIYGASNLESGVPARFSGSGSGTDFTLTISSLEPEDFAVYFCQQSWNDPFTFGQGTKLEIKRTVAAPSVFIFPPSDEQLKSGTASVVCLLNNFYPREAKVQWKVDNALQSGNSQESVTEQDSKDSTYSLSSTLTLSKADYEKHKVYACEVTHQGLSSPVTKSFNRGEC
B7: hBDI-5H1.11 (antibody, V domains shown)
VH: EVQLVESGGGLVQPGGSLRLSCAFSGFSLSTFGMGVGWIRQAPGKGLEWLANIWWDDDKYYNPSLKNRLTISKDTSKNQAYLQINSLRAEDTAVYYCARISTGISSYYVMDAWGQGTLVTVSS
VL: DFVLTQSPDSLAVSLGERATINCERSSGDIGDTYVSWYQQKPGQPPKNVIYGNDQRPSGVPDRFSGSGSGNSATLTISSLQAEDVAVYFCQSYDSDIDIVFGGGTKVEIK
notes: Humanized IgG
B8: hBDI-5H1.12 (antibody, V domains shown)
VH: B7 VH
VL: DFQLTQSPSSLSASVGDRVTITCERSSGDIGDTYVSWYQQKPGKAPKNVIYGNDQRPSGVPSRFSGSGSGNSATLTISSLQPEDFATYFCQSYDSDIDIVFGQGTKVEIK
notes: Humanized IgG
B9: hBDI-5H1.6 (antibody, V domains shown)
VH: EVTLKESGPALVKPTQTLTLTCTFSGFSLSTFGMGVGWIRQPPGKALEWLANIWWDDDKYYNPSLKNRLTISKDTSKNQAVLTITNMDPVDTATYYCARISTGISSYYVMDAWGQGTTVTVSS
VL: NFMLTQPHSVSESPGKTVTISCERSSGDIGDTYVSWYQQRPGSPPTNVIYGNDQRPSGVPDRFSGSIDSSSNSASLTISGLKTEDEADYFCQSYDSDIDIVFGGGTKLTVL
notes: Humanized IgG
B10: hBDI-5H1.9 (antibody, V domains shown)
VH: B9 VH with K5R
VL: B7 VL
notes: Humanized IgG
B11: hBDI-5H1.10 (antibody, V domains shown)
VH: B9 VH with K5R
VL: B8 VL
notes: Humanized IgG
B12: hBDI-5H1.3 (antibody, V domains shown)
VH: B9 VH with K5R, A80V, I84M
VL: EIVLTQSPGTLSLSPGERATLSCERSSGDIGDTYVSWYQQKPGQAPRLLIYGNDQRPSGIPDRFSGSGSGTDFTLTISRLEPEDFAVYYCQSYDSDIDIVFGGGTKVEIK
notes: Humanized IgG
B13: hBDI-5H1.4 (antibody, V domains shown)
VH: B9 VH with K5R, A80V, I84M
VL: B12 VL with I2F, L49V
notes: Humanized IgG

Each binder was assayed against recombinant human PDGF-BB (human, UniProt P01127 82-190) (assay: cell-based or functional assay).
recombinant human PDGF-BB, sequence (P01127 82-190 limits assumed): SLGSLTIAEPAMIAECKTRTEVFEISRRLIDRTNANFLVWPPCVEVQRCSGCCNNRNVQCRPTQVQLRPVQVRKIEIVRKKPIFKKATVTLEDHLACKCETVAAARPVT

NIH-3T3 hPDGF-BB Potency IC50	Binder
5.51 nM	B1
> 5 nM	B2
0.572 nM	B3
0.094 nM	B4
0.104 nM	B5
0.091 nM	B6

What follows are binders tested against T1, Human PDGF-BB (human, UniProt P01127 82-190) (assay: SPR (Biacore), antibody captured via anti-human Fc, antigen in solution).
T1 construct: Recombinant human PDGF-BB, a homodimer of two B chains; also called hPDGF-BB; huPDGF-BB
T1 sequence (P01127 82-190 limits assumed): as above
Protocol: For example, approximately 9000 RU of goat anti-human Fc specific polyclonal antibody (Thermo Fisher Scientific Inc., Rockford, Ill.) diluted in 10 mM sodium acetate (pH 4.5) is directly immobilized across a CM5 research grade biosensor chip using a standard amine coupling kit according to manufacturer's instructions and procedures at 25 μg/ml. Unreacted moieties on the biosensor surface were blocked with ethanolamine. For kinetic analysis, rate equations derived from the 1:1 Langmuir binding model were fitted simultaneously to multiple antigen injections (using global fit analysis) with the use of Scrubber 2 (BioLogic Software), Biacore Biaevaluation 4.0.1 software or Biacore T100 Evaluation software. Purified antibodies or DVD-Ig molecules were diluted in running buffer for capture across goat anti-human Fc reaction surfaces. Antibodies or DVD-Ig molecules to be captured as a ligand (1 μg/ml) were injected over reaction matrices at a flow rate of 10 μl/minute. During the assay, all measurements were referenced against the capture surface alone (i.e., with no captured antibody or DVD-Ig molecule). […] The equilibrium dissociation constant KD (M) of the reaction between antibodies and the target antigen was then calculated from the kinetic rate constants by the following formula: KD=Koff/Kₒₙ. Binding was recorded as a function of time and kinetic rate constants were calculated.

Kd	kon	Binder
≤ 0.37 nM	≥ 1e+07 M⁻¹ s⁻¹	B7
≤ 0.23 nM	≥ 1e+07 M⁻¹ s⁻¹	B8
≤ 0.082 nM	≥ 1e+07 M⁻¹ s⁻¹	B9
≤ 0.31 nM	≥ 1e+07 M⁻¹ s⁻¹	B10
≤ 0.23 nM	≥ 1e+07 M⁻¹ s⁻¹	B11
≤ 0.45 nM	≥ 1e+07 M⁻¹ s⁻¹	B12
≤ 1.4 nM	≥ 1e+07 M⁻¹ s⁻¹	B13
